In patent publication US12156920B2, “Double-labeled probe for molecular imaging and use thereof” (Deutsches Krebsforschungszentrum, priority 2017, dated 2024):
Several values for one entry are separate records, joined by “and”; a condition that tells them apart may be missing. Equal entries are not always repeated.

What was measured:
[1] = Biodistribution (organ distribution) of 68Ga-labeled compounds; format: in vivo, mice; conditions: male, BALB/c nu/nu, mouse, in vivo, iv, 60 pmol, total radioactivity
Method: (§1) The precursor peptides [1 nmol in HEPES buffer (580 mg/ml), 90 μL] were added to 40 μL [^68Ga]Ga^3+ eluate (˜40 MBq). The pH was adjusted to 3.8 using 30% NaOH and 10% NaOH, respectively. The reaction mixture was incubated at 98° C. for 10 minutes. The radiochemical yield (RCY) was determined by HPLC. For the experimental tumor models 5×10^6 cells of LNCaP (in 50% Matrigel; Becton Dickinson, Heidelberg, Germany) were subcutaneously inoculated into the right trunk of 7- to 8-week-old male BALB/c nu/nu mice (Charles River). The tumors were allowed to grow until approximately 1 cm^3 in size. The ^68Ga-labeled compounds were injected into a tail vein (1-2 MBq; 60 pmol). […] Organs of interest were dissected, blotted dry, and weighed. The radioactivity was measured using a gamma counter and calculated as % ID/g. All animal experiments complied with the current laws of the Federal Republic of Germany.

[2] = tested on: LNCaP-tumor bearing balb/c nu/nu mice; test: as above; format: in vivo
Method: as §1

[3] = molecular target: T1, PSMA (Homo sapiens, UniProt Q04609); test: Competitive cell binding assay on LNCaP cells (PSMA binding affinity); conditions: competition against 0.2 nM 68Ga-labeled PSMA-10
T1 construct: endogenous in cells; host or cells: LNCaP cells (ATCC CRL-1740)
T1 sequence (Q04609 whole entry): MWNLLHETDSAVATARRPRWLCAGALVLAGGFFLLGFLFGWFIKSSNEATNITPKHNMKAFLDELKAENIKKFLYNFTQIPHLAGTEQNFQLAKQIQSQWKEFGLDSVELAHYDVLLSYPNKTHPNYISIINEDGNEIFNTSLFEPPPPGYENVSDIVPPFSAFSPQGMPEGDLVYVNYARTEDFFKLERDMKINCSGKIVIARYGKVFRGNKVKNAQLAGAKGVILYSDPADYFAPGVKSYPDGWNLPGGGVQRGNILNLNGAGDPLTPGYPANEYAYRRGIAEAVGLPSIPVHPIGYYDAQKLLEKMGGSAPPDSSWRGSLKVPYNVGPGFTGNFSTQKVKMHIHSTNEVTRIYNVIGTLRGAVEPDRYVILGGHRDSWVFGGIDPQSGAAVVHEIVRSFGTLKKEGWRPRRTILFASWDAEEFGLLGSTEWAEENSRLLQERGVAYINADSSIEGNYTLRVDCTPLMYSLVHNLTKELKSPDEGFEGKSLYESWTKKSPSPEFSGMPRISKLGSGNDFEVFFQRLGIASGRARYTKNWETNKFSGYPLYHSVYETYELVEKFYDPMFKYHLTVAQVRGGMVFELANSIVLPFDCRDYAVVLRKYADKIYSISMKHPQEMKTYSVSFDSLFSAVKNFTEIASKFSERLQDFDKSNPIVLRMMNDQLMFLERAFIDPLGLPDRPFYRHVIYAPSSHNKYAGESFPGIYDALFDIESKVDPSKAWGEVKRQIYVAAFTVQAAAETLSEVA
Method: (§2) PSMA^+ LNCaP cells (ATCC CRL-1740) were cultured in RPMI medium supplemented with 10% fetal calf serum and 2 mmol/L L-glutamine (all from PAA). Cells were grown at 37° C. in humidified air with 5% CO2 and were harvested using trypsin-ethylenediaminetetraacetic acid (trypsin-EDTA; 0.25% trypsin, 0.02% EDTA, Invitrogen).
The competitive cell binding assay and internalization experiments were performed as described previously (4). Briefly, the cells (10^5 per well) were incubated with a 0.2 nM solution of ^68Ga-labeled radioligand [Glu-urea-Lys(Ahx)]2-HBED-CC (PSMA-10, precursor ordered from ABX, Radeberg, Germany) in the presence of 12 different concentrations of analyte (0-5000 nM, 100 μL/well). After incubation, the mixture was removed and the wells were washed 3 times with PBS using a multiscreen vacuum manifold (Millipore, Billerica, Mass.). Cell-bound radioactivity was measured using a gamma counter (Packard Cobra II, GMI, Minnesota, USA). The 50% inhibitory concentration (IC50) values were calculated by fitting the data using a nonlinear regression algorithm (GraphPad Software).

[4] = tested on: PSMA+ LNCaP cells; test: Internalization experiments (specific cell surface bound and internalized fractions); format: cell-based; conditions: 68Ga-labeled compound 30 nM, 45 min
Method: as §2
For internalization experiments, 10^5 cells per well were seeded in poly-L-lysine coated 24-well cell culture plates 24 h before incubation. After washing, the cells were incubated with 30 nM of the radiolabeled compound for 45 min at 37° C. and at 4° C., respectively. Cellular uptake was terminated by washing 3 times with 1 mL of ice-cold PBS. To remove surface-bound radioactivity, cells were incubated twice with 0.5 mL glycine-HCl in PBS (50 mM, pH=2.8) for 5 min. The cells were washed with 1 mL of ice-cold PBS and lysed using 0.3 N NaOH (0.5 mL). The surface-bound and the internalized fractions were measured in a gamma counter. The cell uptake was calculated as percent of the initially added radioactivity bound to 10^5 cells [% ID/10^5 cells].

[5] = Organ distribution Tumor (tumor accumulation)
[6] = Tumor-to-Organ ratio T/Intestine
[7] = 68Ga labeled, 1 h p.i., tail vein

## CC1(C)C(/C=C/C2=C(Oc3ccc(S(=O)(=O)O)cc3)C(=C\C=C3/N(CCCCS(=O)(=O)O)c4ccc(S(=O)(=O)O)cc4C3(C)C)/CCC2)=[N+](CCCCCC(=O)NCCOCCOCCNC(=O)CCc2ccc(O)c(CN(CCN(CC(=O)O)Cc3cc(CCC(=O)NCc4cn(CCCCC(=O)NC(CCC(=O)O)C(=O)NC(Cc5cnc[nH]5)C(=O)NCCCCC(NC(=O)NC(CCC(=O)O)C(=O)O)C(=O)O)nn4)ccc3O)CC(=O)O)c2)c2ccc(S(=O)(=O)O)cc21 (stereo not shown) [PSMA-(HE)1-HBED-CC-PEG2-IRDye800CW, Glu-urea-Lys-(HE)1-HBED-CC-PEG2-IRDye800CW]
[1]; Organ distribution Blood
  tissue uptake at 1 h: 1.52 %ID/g
[1]; Organ distribution Brain
  tissue uptake at 1 h: 0.3 %ID/g
[1]; Organ distribution Heart
  tissue uptake at 1 h: 0.94 %ID/g
[1]; Organ distribution Intestine
  tissue uptake at 1 h: 1.29 %ID/g
[1]; Organ distribution Kidney
  tissue uptake at 1 h: 84.3 %ID/g
[1]; Organ distribution Liver
  tissue uptake at 1 h: 1.19 %ID/g
[1]; Organ distribution Lung
  tissue uptake at 1 h: 2.46 %ID/g
[1]; Organ distribution Muscle
  tissue uptake at 1 h: 1.03 %ID/g
[1]; Organ distribution Spleen
  tissue uptake at 1 h: 8.17 %ID/g
[1]; [5]
  tissue uptake at 1 h: 3.92 %ID/g
[1]; Tumor-to-Organ ratio T/Blood
  tissue to tissue ratio at 1 h: 2.58
[1]; Tumor-to-Organ ratio T/Brain
  tissue to tissue ratio at 1 h: 13
[1]; Tumor-to-Organ ratio T/Heart
  tissue to tissue ratio at 1 h: 4.19
[1]; [6]
  tissue to tissue ratio at 1 h: 3.05
[1]; Tumor-to-Organ ratio T/Kidney
  tissue to tissue ratio at 1 h: 0.05
[1]; Tumor-to-Organ ratio T/Liver
  tissue to tissue ratio at 1 h: 3.3
[1]; Tumor-to-Organ ratio T/Lung
  tissue to tissue ratio at 1 h: 1.6
[1]; Tumor-to-Organ ratio T/Muscle
  tissue to tissue ratio at 1 h: 3.81
[1]; Tumor-to-Organ ratio T/Spleen
  tissue to tissue ratio at 1 h: 0.48

## O=C(O)CCc1ccc(O)c(CN(CCN(CC(=O)O)Cc2cc(CCC(=O)NCCCCCC(=O)NCCCCC(NC(=O)NC(CCC(=O)O)C(=O)O)C(=O)O)ccc2O)CC(=O)O)c1 (stereo not shown) [PSMA-11, Glu-urea-Lys-(Ahx)-HBED-CC, reference compound]
[2]; 68Ga labeled
  Organ distribution Liver: 0.34 % ID/g
  Organ distribution Lung: 1.19 % ID/g
[2]; 68Ga labeled, 1 h p.i.
  Tumor-to-Organ ratio T/Blood: 9.23
  Tumor-to-Organ ratio T/Brain: 12.23
  Tumor-to-Organ ratio T/Heart: 5.89
  Tumor-to-Organ ratio T/Intestine: 4.29
  Tumor-to-Organ ratio T/Kidney: 0.04
  Tumor-to-Organ ratio T/Liver: 3.42
  Tumor-to-Organ ratio T/Lung: 2.07
  Tumor-to-Organ ratio T/Muscle: 4.89
  Tumor-to-Organ ratio T/Spleen: 0.27
[2]; 68Ga labeled, 1 h p.i., LNCaP tumor
  Organ distribution Tumor (tumor accumulation): 4.89±1.34 % ID/g and 4.89 % ID/g
[2]; [7]
  Organ distribution Blood: 0.53 % ID/g
  Organ distribution Brain: 0.40 % ID/g
  Organ distribution Heart: 0.83 % ID/g
  Organ distribution Intestine: 1.14 % ID/g
  Organ distribution Kidney: 139.44 % ID/g
  Organ distribution Liver: 1.43 % ID/g
  Organ distribution Lung: 2.36 % ID/g
  Organ distribution Muscle: 1.00 % ID/g
  Organ distribution Spleen: 17.88 % ID/g
[2]; 68Ga labeled, 2 h p.i.
  Organ distribution Blood: 0.32 % ID/g
  Organ distribution Brain: 0.23 % ID/g
  Organ distribution Heart: 0.31 % ID/g
  Organ distribution Intestine: 1.19 % ID/g
  Organ distribution Kidney: 129.73 % ID/g
  Organ distribution Muscle: 2.06 % ID/g
  Organ distribution Spleen: 12.41 % ID/g
[2]; 68Ga labeled, 2 h p.i., LNCaP tumor
  Organ distribution Tumor: 6.09 % ID/g
[3]
  Ki: 9.82 ± 1.26 nM
[4]
  Specific cell surface bound: 2.31 ± 0.61 % ID/10^5 cells
  Specific internalized: 3.57 ± 0.51 % ID/10^5 cells

## CC1(C)C(/C=C/C2=C(Oc3ccc(S(=O)(=O)O)cc3)C(=C\C=C3/N(CCCCS(=O)(=O)O)c4ccc(S(=O)(=O)O)cc4C3(C)C)/CCC2)=[N+](CCCCCC(=O)NCCOCCOCCNC(=O)CCc2ccc(O)c(CN(CCN(CC(=O)O)Cc3cc(CCC(=O)NCc4cn(CCCCC(=O)NC(CCC(=O)O)C(=O)NC(Cc5c[nH]c6ccccc56)C(=O)NCCCCC(NC(=O)NC(CCC(=O)O)C(=O)O)C(=O)O)nn4)ccc3O)CC(=O)O)c2)c2ccc(S(=O)(=O)O)cc21 (stereo not shown) [PSMA-(WE)1-HBED-CC-PEG2-IRDye800CW, Glu-urea-Lys-(WE)1-HBED-CC-PEG2-IRDye800CW]
[1]; Organ distribution Blood
  tissue uptake at 1 h: 1.61 %ID/g
[1]; Organ distribution Brain
  tissue uptake at 1 h: 0.15 %ID/g
[1]; Organ distribution Heart
  tissue uptake at 1 h: 1.49 %ID/g
[1]; Organ distribution Intestine
  tissue uptake at 1 h: 0.96 %ID/g
[1]; Organ distribution Kidney
  tissue uptake at 1 h: 105 %ID/g
[1]; Organ distribution Liver
  tissue uptake at 1 h: 1.73 %ID/g
[1]; Organ distribution Lung
  tissue uptake at 1 h: 2.57 %ID/g
[1]; Organ distribution Muscle
  tissue uptake at 1 h: 1 %ID/g
[1]; Organ distribution Spleen
  tissue uptake at 1 h: 12.9 %ID/g
[1]; [5]
  tissue uptake at 1 h: 3.85 %ID/g
[1]; Tumor-to-Organ ratio T/Blood
  tissue to tissue ratio at 1 h: 2.39
[1]; Tumor-to-Organ ratio T/Brain
  tissue to tissue ratio at 1 h: 25.6
[1]; Tumor-to-Organ ratio T/Heart
  tissue to tissue ratio at 1 h: 2.59
[1]; [6]
  tissue to tissue ratio at 1 h: 4.01
[1]; Tumor-to-Organ ratio T/Kidney
  tissue to tissue ratio at 1 h: 0.04
[1]; Tumor-to-Organ ratio T/Liver
  tissue to tissue ratio at 1 h: 2.23
[1]; Tumor-to-Organ ratio T/Lung
  tissue to tissue ratio at 1 h: 1.5
[1]; Tumor-to-Organ ratio T/Muscle
  tissue to tissue ratio at 1 h: 3.86
[1]; Tumor-to-Organ ratio T/Spleen
  tissue to tissue ratio at 1 h: 0.3

## CC1(C)C(/C=C/C2=C(Oc3ccc(S(=O)(=O)O)cc3)C(=C\C=C3/N(CCCCS(=O)(=O)O)c4ccc(S(=O)(=O)O)cc4C3(C)C)/CCC2)=[N+](CCCCCC(=O)NCCOCCOCCNC(=O)CCc2ccc(O)c(CN(CCN(CC(=O)O)Cc3cc(CCC(=O)NCc4cn(CCCCC(=O)N[C@@H](CCC(=O)O)C(=O)N[C@@H](Cc5cnc[nH]5)C(=O)N[C@@H](CCC(=O)O)C(=O)N[C@@H](Cc5cnc[nH]5)C(=O)N[C@@H](CCC(=O)O)C(=O)N[C@@H](Cc5cnc[nH]5)C(=O)NCCCC[C@H](NC(=O)N[C@@H](CCC(=O)O)C(=O)O)C(=O)O)nn4)ccc3O)CC(=O)O)c2)c2ccc(S(=O)(=O)O)cc21 [PSMA-(HE)3-HBED-CC-PEG2-IRDye800CW, Glu-urea-Lys-(HE)3-HBED-CC-PEG2-IRDye800CW]
[2]; mouse, in vivo
  Tumor-to-Organ ratio T/Blood: 6.80
  Tumor-to-Organ ratio T/Brain: 42.63
  Tumor-to-Organ ratio T/Heart: 5.57
  Tumor-to-Organ ratio T/Intestine: 5.80
  Tumor-to-Organ ratio T/Kidney: 0.07
  Tumor-to-Organ ratio T/Liver: 6.08
  Tumor-to-Organ ratio T/Lung: 3.24
  Tumor-to-Organ ratio T/Muscle: 6.45
  Tumor-to-Organ ratio T/Spleen: 2.19
[1]; Organ distribution Blood
  tissue uptake at 1 h: 1.12 %ID/g
  tissue uptake at 2 h: 0.65 %ID/g
[1]; Organ distribution Brain
  tissue uptake at 1 h: 0.18 %ID/g
  tissue uptake at 2 h: 0.23 %ID/g
[1]; Organ distribution Heart
  tissue uptake at 1 h: 1.36 %ID/g
  tissue uptake at 2 h: 0.53 %ID/g
[1]; Organ distribution Intestine
  tissue uptake at 1 h: 1.31 %ID/g
  tissue uptake at 2 h: 0.67 %ID/g
[1]; Organ distribution Kidney
  tissue uptake at 1 h: 109 %ID/g
  tissue uptake at 2 h: 55.8 %ID/g
[1]; Organ distribution Liver
  tissue uptake at 1 h: 1.25 %ID/g
  tissue uptake at 2 h: 0.76 %ID/g
[1]; Organ distribution Lung
  tissue uptake at 1 h: 2.34 %ID/g
  tissue uptake at 2 h: 0.89 %ID/g
[1]; Organ distribution Muscle
  tissue uptake at 1 h: 1.18 %ID/g
  tissue uptake at 2 h: 0.47 %ID/g
[1]; Organ distribution Spleen
  tissue uptake at 1 h: 3.47 %ID/g
  tissue uptake at 2 h: 0.76 %ID/g
[1]; Organ distribution Tumor
  tissue uptake at 2 h: 3.1 %ID/g
[1]; [5]
  tissue uptake at 1 h: 7.59 %ID/g
[1]; Tumor-to-Organ ratio T/Blood
  tissue to tissue ratio at 1 h: 6.8
[1]; Tumor-to-Organ ratio T/Brain
  tissue to tissue ratio at 1 h: 42.6
[1]; Tumor-to-Organ ratio T/Heart
  tissue to tissue ratio at 1 h: 5.57
[1]; [6]
  tissue to tissue ratio at 1 h: 5.8
[1]; Tumor-to-Organ ratio T/Kidney
  tissue to tissue ratio at 1 h: 0.07
[1]; Tumor-to-Organ ratio T/Liver
  tissue to tissue ratio at 1 h: 6.08
[1]; Tumor-to-Organ ratio T/Lung
  tissue to tissue ratio at 1 h: 3.24
[1]; Tumor-to-Organ ratio T/Muscle
  tissue to tissue ratio at 1 h: 6.45
[1]; Tumor-to-Organ ratio T/Spleen
  tissue to tissue ratio at 1 h: 2.19
[3]
  Ki: 36.7 ± 9.77 nM
